According to publication PMC4210448:

Molecular target: Map205 (UniProt P23226)
Test: PrA-Map205 affinity purification, GFP blot
Details: reference: Polo WT-GFP with Aurora B–Myc; sites T182

- binding against the reference: stronger
Substance: Polo (from UniProt P52304) Polo T182A-GFP with Aurora B–Myc
